Laboratory results: the supplement of paper PMC10567573

B1: FAM164C (parent)
chain: YPHCTGISQQDPESDSQGQGNGLF
B2: ZNF263 (parent)
chain: QPKKLHLCPLCGKNFSNNSNLIRH

Variants of: B1
Assay: protein stability index of a GFP-peptide fusion (GPS, HEK-293T) (PSI 1-6); higher = more stable
Conditions: c terminus: a fixed tail appended
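Further: lentivirally expressed fusions sorted by FACS into six bins by GFP to DsRed ratio, PSI derived from sequencing read proportions per bin multiplied by bin number.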

Protein stability index: each site, then its substitutions
S8: C 3.11; Y 2.75; R 3.57; D 3.91; Q 3.95
Y1: S 5.39; N 5.28; K 5.28
S14: A 3.86; I 3.25; N 3.89; D 4.2
G18: L 3.42; E 4.19
E13: N 3.23; Y 2.97; H 3.4
Q9: H 3.58; D 3.91; G 3.85; N 3.5
Q19: P 3.86; E 4.21; C 3.24
P2: F 3.86; W 3.67; R 4.71; V 1.91; S 4.65
G6: T 3.51; K 3.23; R 3.45; N 3.56; C 2.46
N21: D 4.5; H 3.75; K 3.77; C 3.65; Y 3.02
P12: D 3.91; A 3.95; S 3.98; Q 3.71
H3: N 4.09; F 4; V 4.34; L 3.37; A 3.75; C 3.1
T5: R 2.71; K 3.55; V 3.18; E 4.49
L23: D 4.93; Q 4.75; Y 4.26; H 4.89; N 4.38; K 4.76
G20: S 3.79; F 2.56; L 3.11; P 3.59; V 3.44
F24: M 4.55; Y 3.87; W 2.23; K 5.12; D 4.44
C4: Q 4.53; K 4.39; I 3.72; E 4.82
G22: Q 3.44; H 2.97; C 3.16
D15: M 2.9; I 2.9; L 2.8; V 3.51; G 2.94; P 3.46; K 3.64; R 3.54; Q 3.44; E 4.07
Q17: P 3.6; H 3.36; I 3.42; S 3.79
S16: W 2.76; N 4.18; P 3.92
I7: Q 4.01; M 3.38; D 4.45
Q10: R 3.54; V 3.74; G 3.88; S 3.48
D11: M 3.41; G 3.18; S 3.58; W 2.32

Variants of: B2
Assay: as above
Conditions: c terminus: a fixed tail appended

Protein stability index: each site, then its substitutions
S16: W 2.09; P 2.49; D 2.72; F 2.48; R 2.17; M 2.96; L 2.34; K 2.56
Q1: C 2.69; T 2.5; A 2.97; E 3.16; K 2.64; V 2.12; S 2.39; L 2.4; P 2.43; F 2.21
R23: D 3.77; P 2.93; F 2.42; G 2.65; T 2.92; K 3.19; W 1.76; L 2; H 2.56; I 1.91
L5: Q 2.54; W 2.74; Y 2.18; R 2.37; N 2.13; D 3.25; C 2.02; F 1.81; E 2.64; K 2.67; P 2.09; V 3.02
P2: S 2.53; Y 1.89; A 2.42; V 2.3; D 2.42; H 1.68; M 2.27; W 2.14; C 2.13; R 2.06; G 2.22; F 2.44; I 2.43; K 2.17
L21: V 2.85; H 2.83; S 2.19; C 3.13; E 2.92; G 2.62
H6: K 2.81; L 2.19; G 2.39; D 2.95; N 2.14; V 2.12; C 1.99
N17: K 2.28; C 2.33; F 2.06; H 2.43; E 2.33; D 2.48; Q 2.42; S 2.66; R 2.07; V 2.18
C8: P 2.82; S 2.41; I 2.61; M 3.22; D 2.4
P9: N 2.4; T 2.66; I 1.89; R 2.25; H 2.38; V 2.1; G 2.26; Q 2.67; M 2.31; C 2.3; K 2.63
S19: L 2.96; A 2.65; G 1.96; V 2.43; P 1.77; T 2.75; C 3.3; I 2.58
K4: R 1.88; P 2.69; Q 3.03; F 2.17; T 2.75; N 2.92; D 3; S 3.18; W 2.47; C 2.53; V 2.62; A 2.19
N18: D 2.8; T 2.45; C 2.48; Y 3.22; L 3.11; A 2.97; I 2.33; K 2.31; V 2.86; S 2.39; Q 3.17; W 2.73
K3: A 2.33; V 2.67; G 2.65; M 2.78; E 2.8; S 2.56; N 2.83; C 2.32; T 2.17; W 1.93
K13: T 2.15; I 1.89; F 2.51; R 2.53; A 3.12; D 1.67; E 2.29; S 2.41; H 2.62; P 1.82
L7: G 2.08; F 2.78; N 2.18; Q 2.85; D 2.1; C 2.3; S 2.1; M 2.59; T 2.74; K 2.88; Y 3.02; A 2.69; R 2.72
N14: H 3.06; W 3.51; K 2.94; S 3.48; M 2.83; I 3.33
F15: Q 1.89; A 2.03; S 2.19; W 1.95; Y 2.46; N 2.45; M 1.99; K 2.06; L 2; D 2.56
C11: W 1.74; P 3.36; L 2.41; R 2.83; N 2.8; V 2.48; A 3.13; M 2.07; F 1.87
G12: T 3.13; H 2.4; S 1.99; L 2.07; F 1.39; A 2.27; C 2.47; M 1.79; E 2; P 2.3
I22: E 3.45; F 2.47; S 2.55; D 2.86; M 2.88; N 2.5; C 4.04; Y 2.69; V 2.73
H24: T 2.35; M 2.31; A 1.74; I 2.08; V 2.27; P 2.56; L 2.24; G 2.43
N20: W 1.57; L 3.05; C 3.21; V 2.04; E 3.42; P 2.49; S 3.09; A 3.25; H 2.69; M 2.54; T 2.94; D 4
L10: S 4.12; H 3.56; P 2.62; T 2.84; A 2.5; V 2.96; Q 2.91; Y 2.53
